Experimental data published in PMC11053023 (Nature Communications, 2024).
Values belong to the binder of their own block, whether it stands above or below them.

Experiments:
[1] = target: T1, FEM1B-EB-EC ternary complex (human, UniProt Q9UK73 1-627; Q15370 1-118; Q15369 17-112); experiment: ITC; peptides (0.5-1 mM) titrated into 50 μM protein in the cell, 25 °C; 20 mM Tris, 200 mM NaCl, pH 7.5, 1 mM EDTA; one-site binding model; details: both partners purified
T1 construct: FEM1B, human, full-length (FEM1B^FL); elongin B (EB, ELOB), human; elongin C (EC, ELOC), human; written as one protomer; also called FEM1B-elongin B-elongin C; FEM1B-ELOB-ELOC; source: E. coli BL21(DE3), co-expressed, purified (Ni-NTA, SEC); copies: + +

[2] = target: T2, FEM1B-EB-EC ternary complex with FEM1B D356A/V391A/Q394A/F501A/H502A (human, UniProt Q9UK73 1-627; Q15370 1-118; Q15369 17-112, D356A | V391A | Q394A | F501A | H502A); experiment: ITC; SUMO fusion peptides (0.5-1 mM) titrated into 50 μM FEM1B-EB-EC in the cell, 25 °C, 20 mM Tris, 200 mM NaCl, pH 7.5, 1 mM EDTA; one-site binding model; details: both partners purified
T2 construct: FEM1B, human, full length, quintuple mutant of the aromatic (psi) pocket; elongin B (EB, ELOB), human; elongin C (EC, ELOC), human; also called 5A mutant; FEM1BFL-EB-EC D356A/V391A/Q394A/F501A/H502A; source: E. coli BL21(DE3), purified in the same way as the WT protein; copies: + +

Binder: KKHSLDLLLRHLSP [CCDC89 C-degron variant with deletion of nine residues in the linker region]
Kd [1]: > 50 µM

B2: SUMO-(GGGS)2-CDK5R1 285-307 WT (peptide)
chain: VFSDLKNESGQEDKKRLLLGLDR
notes: CDK5R1, human, C-terminal 23 residues; also called CDK5R1 23-mer; 23-aa CDK5R1 C-degron; source: E. coli BL21(DE3), purified (Ni-NTA; SEC for ITC); not shown: SUMO with (GGGS)2 linker, N-terminal, kept
Kd [2]: 5.7 ± 0.8 µM
stoichiometry N [2]: 0.16

Other lines, results leading:

stoichiometry N [2]: 0.46
B1: SUMO-(GGGS)2-CDK5R1 298-307 WT (peptide)
chain: KKRLLLGLDR
notes: CDK5R1, human, C-terminal 10 residues; also called CDK5R1 10-mer; 10-aa CDK5R1 C-degron; source: E. coli BL21(DE3), purified (Ni-NTA; SEC for ITC); not shown: SUMO with (GGGS)2 linker, N-terminal, kept

Kd [1]: > 500 µM
Binder: KAADHLHKFHENDNGAAAGDLWQ [CUX1 C-degron F-22A, SUMO fusion]
